Results: article PMC2887978

Target: MBD2b (UniProt Q9UBB5 150-411)
Test: EMSA

MBD2b, sequence (Q9UBB5 150-411): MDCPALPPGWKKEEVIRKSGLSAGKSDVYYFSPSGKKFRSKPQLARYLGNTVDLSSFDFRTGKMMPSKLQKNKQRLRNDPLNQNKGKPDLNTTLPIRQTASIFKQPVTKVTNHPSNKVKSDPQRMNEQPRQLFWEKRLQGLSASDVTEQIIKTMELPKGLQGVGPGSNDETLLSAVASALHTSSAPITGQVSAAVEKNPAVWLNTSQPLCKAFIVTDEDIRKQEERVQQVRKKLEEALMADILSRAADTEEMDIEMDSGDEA

B1: C76 (dsDNA)
DNA 1: CCTCACCATCTCAACCAATATTATATTACGCGTATATCGCGTATTTCGCGTTATAATATTGAGGGAGAAGTGGTGA
DNA 2: TCACCACTTCTCCCTCAATATTATAACGCGAAATACGCGATATACGCGTAATATAATATTGGTTGAGATGGTGAGG
  binding result: no binding
